Legend:
Assay in all cases: cell-based or functional assay
[1] = target: HIV-1 Env of NAC_93IN905 (HIV-1)
[2] = target: HIV-1 Env of NAC_ADA (HIV-1)
[3] = target: HIV-1 Env of NAC_RHPA4.7 (HIV-1)
[4] = target: HIV-1 Env of NIH-009_1006.11.C3.1601 (HIV-1)
[5] = target: HIV-1 Env of NIH-012_1012.11.TC21.3257 (HIV-1)
[6] = target: HIV-1 Env of NIH-014_6244.13.B5.4567 (HIV-1)
[7] = target: HIV-1 Env of NIH-020_ZM197M.PB7 (HIV-1)
[8] = target: HIV-1 Env of NIH-027_CAP45.G3 (HIV-1)
[9] = target: HIV-1 Env of NIH-039_Ce2060 G9 (HIV-1)
[10] = target: HIV-1 Env of NIH-049_CNE20 (HIV-1)
[11] = target: HIV-1 Env of NIH-051_CNE17 (HIV-1)
[12] = target: HIV-1 Env of NIH-055_CNE58 (HIV-1)
[13] = target: HIV-1 Env of NIH-059_Q461ENVe2 (HIV-1)
[14] = target: HIV-1 Env of NIH-095_6480.v4.c25 (HIV-1)
[15] = target: HIV-1 Env of NIH-100_6041.v3.c23 (HIV-1)
[16] = target: HIV-1 Env of NIH-108_T235.47 (HIV-1)
[17] = target: HIV-1 Env of NIH-116_T263.8 (HIV-1)
[18] = target: HIV-1 Env of isolate NIH-086_X2131 C1 B5 (HIV-1)
[19] = target: HIV-1 Env of pseudovirus NAC_92RW020 (HIV-1)
[20] = target: HIV-1 Env of pseudovirus NAC_ADA (HIV-1)
[21] = target: HIV-1 Env of pseudovirus NAC_BG505 (HIV-1)
[22] = target: HIV-1 Env of pseudovirus NAC_MN (HIV-1) (UniProt P05877)
Sequence of HIV-1 Env of pseudovirus NAC_MN (HIV-1) (P05877 32-856): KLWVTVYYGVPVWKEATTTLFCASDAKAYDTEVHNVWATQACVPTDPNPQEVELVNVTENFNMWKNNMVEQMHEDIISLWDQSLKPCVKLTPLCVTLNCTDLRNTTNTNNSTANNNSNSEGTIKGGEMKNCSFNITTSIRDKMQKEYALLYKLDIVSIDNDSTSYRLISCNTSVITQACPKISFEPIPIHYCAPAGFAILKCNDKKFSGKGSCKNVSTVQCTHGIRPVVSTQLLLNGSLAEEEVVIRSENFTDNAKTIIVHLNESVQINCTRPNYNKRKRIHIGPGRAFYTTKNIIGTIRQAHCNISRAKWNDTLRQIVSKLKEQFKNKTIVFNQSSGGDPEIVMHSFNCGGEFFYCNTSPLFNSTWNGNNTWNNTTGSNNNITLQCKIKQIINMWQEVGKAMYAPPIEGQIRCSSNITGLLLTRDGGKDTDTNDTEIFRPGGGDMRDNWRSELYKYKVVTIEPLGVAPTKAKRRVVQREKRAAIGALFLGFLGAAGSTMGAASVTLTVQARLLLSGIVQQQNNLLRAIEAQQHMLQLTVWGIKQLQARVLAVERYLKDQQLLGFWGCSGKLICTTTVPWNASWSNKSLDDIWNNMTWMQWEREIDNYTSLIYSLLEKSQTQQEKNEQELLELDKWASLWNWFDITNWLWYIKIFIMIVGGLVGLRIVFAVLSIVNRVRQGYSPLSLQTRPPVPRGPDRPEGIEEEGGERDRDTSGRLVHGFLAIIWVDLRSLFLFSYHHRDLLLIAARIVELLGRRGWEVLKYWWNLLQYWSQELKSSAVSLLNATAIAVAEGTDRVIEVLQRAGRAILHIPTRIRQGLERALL

[23] = target: HIV-1 Env of pseudovirus NIH-004_PVO.4 (HIV-1)
[24] = target: HIV-1 Env of pseudovirus NIH-008_WEAU.d15.410.787 (HIV-1)
[25] = target: HIV-1 Env of pseudovirus NIH-009_1006.11.C3.1601 (HIV-1)
[26] = target: HIV-1 Env of pseudovirus NIH-010_1054.07.TC4.1499 (HIV-1)
[27] = target: HIV-1 Env of pseudovirus NIH-015_62357.14.D3.4589 (HIV-1)
[28] = target: HIV-1 Env of pseudovirus NIH-018_Du172.17 (HIV-1)
[29] = target: HIV-1 Env of pseudovirus NIH-020_ZM197M.PB7 (HIV-1)
[30] = target: HIV-1 Env of pseudovirus NIH-021_ZM214M.PL15 (HIV-1)
[31] = target: HIV-1 Env of pseudovirus NIH-025_ZM109F.PB4 (HIV-1)
[32] = target: HIV-1 Env of pseudovirus NIH-027_CAP45.G3 (HIV-1)
[33] = target: HIV-1 Env of pseudovirus NIH-030_HIV-0013095.2.11 (HIV-1)
[34] = target: HIV-1 Env of pseudovirus NIH-040_Ce703010054 2A2 (HIV-1)
[35] = target: HIV-1 Env of pseudovirus NIH-046_1394C9G1(Rev.) (HIV-1)
[36] = target: HIV-1 Env of pseudovirus NIH-052_CNE30 (HIV-1)
[37] = target: HIV-1 Env of pseudovirus NIH-053_CNE52 (HIV-1)
[38] = target: HIV-1 Env of pseudovirus NIH-069_C1080.c03 (HIV-1)
[39] = target: HIV-1 Env of pseudovirus NIH-094_3817.v2.c59 (HIV-1)
[40] = target: HIV-1 Env of pseudovirus NIH-095_6480.v4.c25 (HIV-1)
[41] = target: HIV-1 Env of pseudovirus NIH-098_89.F1 2 25 (clade CD) (HIV-1)
[42] = target: HIV-1 Env of pseudovirus NIH-101_6540.v4.c1 (HIV-1)
[43] = target: HIV-1 Env of pseudovirus NIH-104_3103.v3.c10 (HIV-1)
[44] = target: HIV-1 Env of pseudovirus NIH-106_T250.4 (HIV-1)
[45] = target: HIV-1 Env of pseudovirus NIH-115_928.28 (HIV-1)
[46] = target: envelope protein of control pseudovirus NAC_AMLV

Substance VRC01 (antibody) has an IC80 neutralization [1] of 0.28 µg/mL, an IC80 neutralization [2] of 1.31 µg/mL and an IC80 neutralization [3] of 0.137 µg/mL. The IC80 neutralization [4] was 0.571 µg/mL, the IC80 neutralization [5] was 0.318 µg/mL and the IC80 neutralization [6] was 0.193 µg/mL. For the same substance, the IC80 neutralization [7] was 0.682 µg/mL, the IC80 neutralization [8] was 10.1 µg/mL and the IC80 neutralization [9] was 0.45 µg/mL. It also gave an IC80 neutralization [10] of 20.2 µg/mL, an IC80 neutralization [11] of 0.904 µg/mL and an IC80 neutralization [12] of 0.331 µg/mL. For the same substance, the IC80 neutralization [13] was 0.776 µg/mL, the IC80 neutralization [14] was 0.054 µg/mL and the IC80 neutralization [15] was 0.087 µg/mL. The IC80 neutralization [16] was 0.084 µg/mL, the IC80 neutralization [17] was 0.505 µg/mL and the IC80 (µg/ml), TZM-bl pseudovirus neutralization [18] was 0.284 µg/mL. It also gave a neutralization IC50 [19] of 0.206 µg/mL, a neutralization IC50 [20] of 0.314 µg/mL and a neutralization IC50 [21] of 0.056 µg/mL. It also gave a neutralization IC50 [22] of 0.01 µg/mL, a neutralization IC50 [23] of 0.192 µg/mL and a neutralization IC50 [24] of 0.076 µg/mL. The neutralization IC50 [25] was 0.145 µg/mL, the neutralization IC50 [26] was 0.909 µg/mL and the neutralization IC50 [27] was 1.74 µg/mL. The neutralization IC50 [28] was greater than 50 µg/mL, the neutralization IC50 [29] was 0.17 µg/mL and the neutralization IC50 [30] was 0.612 µg/mL. For the same substance, the neutralization IC50 [31] was 0.074 µg/mL, the neutralization IC50 [32] was 1.92 µg/mL and the neutralization IC50 [33] was 0.0002 µg/mL. For the same substance, the neutralization IC50 [34] was 0.139 µg/mL, the neutralization IC50 [35] was 0.28 µg/mL and the neutralization IC50 [36] was 0.593 µg/mL. For the same substance, the neutralization IC50 [37] was 0.142 µg/mL, the neutralization IC50 [38] was 1.4 µg/mL and the neutralization IC50 [39] was greater than 50 µg/mL. For the same substance, the neutralization IC50 [40] was 0.014 µg/mL, the IC50 (µg/ml), TZM-bl cell neutralization assay, pseudovirus [41] was greater than 50 µg/mL and the neutralization IC50 [42] was greater than 50 µg/mL. For the same substance, the neutralization IC50 [43] was 1.53 µg/mL, the neutralization IC50 [44] was greater than 50 µg/mL and the neutralization IC50 [45] was 0.249 µg/mL. It also gave an IC50 (µg/ml), TZM-bl cell neutralization assay, control pseudovirus [46] greater than 50 µg/mL and an IC80 (µg/ml), TZM-bl pseudovirus neutralization [46] greater than 50 µg/mL.
4E10 (antibody) gave an IC80 neutralization [1] of 0.472 µg/mL, an IC80 neutralization [2] of 3.34 µg/mL and an IC80 neutralization [3] of 19.3 µg/mL. It also gave an IC80 neutralization [4] of 22.7 µg/mL, an IC80 neutralization [5] of 8.25 µg/mL and an IC80 neutralization [6] of 0.373 µg/mL. The IC80 neutralization [7] was 1.08 µg/mL, the IC80 neutralization [8] was 4.19 µg/mL and the IC80 neutralization [9] was 5.1 µg/mL. It also gave an IC80 neutralization [10] of 1.58 µg/mL, an IC80 neutralization [11] of 2.23 µg/mL and an IC80 neutralization [12] of 2.24 µg/mL. For the same substance, the IC80 neutralization [13] was 9.31 µg/mL, the IC80 neutralization [14] was 3.04 µg/mL and the IC80 neutralization [15] was 22.2 µg/mL. It also gave an IC80 neutralization [16] of 1.07 µg/mL, an IC80 neutralization [17] of 0.927 µg/mL and an IC80 (µg/ml), TZM-bl pseudovirus neutralization [18] of 0.765 µg/mL. The neutralization IC50 [19] was 2.14 µg/mL, the neutralization IC50 [20] was 0.836 µg/mL and the neutralization IC50 [21] was 1.15 µg/mL. It also gave a neutralization IC50 [22] of 0.005 µg/mL, a neutralization IC50 [23] of 9.59 µg/mL and a neutralization IC50 [24] of 0.621 µg/mL. For the same substance, the neutralization IC50 [25] was 5.66 µg/mL, the neutralization IC50 [26] was 1.35 µg/mL and the neutralization IC50 [27] was 2.87 µg/mL. It also gave a neutralization IC50 [28] of 0.102 µg/mL, a neutralization IC50 [29] of 0.226 µg/mL and a neutralization IC50 [30] of 5.31 µg/mL. It also gave a neutralization IC50 [31] of 0.703 µg/mL, a neutralization IC50 [32] of 0.886 µg/mL and a neutralization IC50 [33] of 0.001 µg/mL. The neutralization IC50 [34] was 2.05 µg/mL, the neutralization IC50 [35] was 2.58 µg/mL and the neutralization IC50 [36] was 4.17 µg/mL. It also gave a neutralization IC50 [37] of 0.954 µg/mL, a neutralization IC50 [38] of 0.328 µg/mL and a neutralization IC50 [39] of 0.417 µg/mL. The neutralization IC50 [40] was 0.561 µg/mL, the IC50 (µg/ml), TZM-bl cell neutralization assay, pseudovirus [41] was 5.11 µg/mL and the neutralization IC50 [42] was 5.63 µg/mL. The neutralization IC50 [43] was 8.11 µg/mL, the neutralization IC50 [44] was 0.756 µg/mL and the neutralization IC50 [45] was 0.112 µg/mL. For the same substance, the IC50 (µg/ml), TZM-bl cell neutralization assay, control pseudovirus [46] was greater than 50 µg/mL and the IC80 (µg/ml), TZM-bl pseudovirus neutralization [46] was greater than 50 µg/mL.
Work on PGZL1 (antibody) yielded an IC80 neutralization [1] of 2.2 µg/mL, an IC80 neutralization [2] of 21.8 µg/mL and an IC80 neutralization [3] greater than 50 µg/mL. For the same substance, the IC80 neutralization [4] was greater than 50 µg/mL, the IC80 neutralization [5] was greater than 50 µg/mL and the IC80 neutralization [6] was 5.19 µg/mL. It also gave an IC80 neutralization [7] of 7.66 µg/mL, an IC80 neutralization [8] greater than 50 µg/mL and an IC80 neutralization [9] greater than 50 µg/mL. It also gave an IC80 neutralization [10] of 9.5 µg/mL, an IC80 neutralization [11] of 48.6 µg/mL and an IC80 neutralization [12] of 14.5 µg/mL. It also gave an IC80 neutralization [13] greater than 50 µg/mL, an IC80 neutralization [14] greater than 50 µg/mL and an IC80 neutralization [15] greater than 50 µg/mL. The IC80 neutralization [16] was 6.62 µg/mL, the IC80 neutralization [17] was 8.18 µg/mL and the IC80 (µg/ml), TZM-bl pseudovirus neutralization [18] was 3.5 µg/mL. The neutralization IC50 [19] was 20.8 µg/mL, the neutralization IC50 [20] was 5.36 µg/mL and the neutralization IC50 [21] was 16.7 µg/mL. For the same substance, the neutralization IC50 [22] was 0.023 µg/mL, the neutralization IC50 [23] was 49 µg/mL and the neutralization IC50 [24] was 10 µg/mL. The neutralization IC50 [25] was 24.6 µg/mL, the neutralization IC50 [26] was 5.15 µg/mL and the neutralization IC50 [27] was 27.2 µg/mL. The neutralization IC50 [28] was 0.424 µg/mL, the neutralization IC50 [29] was 1.91 µg/mL and the neutralization IC50 [30] was 28.7 µg/mL. It also gave a neutralization IC50 [31] of 7.36 µg/mL, a neutralization IC50 [32] of 18.3 µg/mL and a neutralization IC50 [33] of 0.008 µg/mL. It also gave a neutralization IC50 [34] of 48.9 µg/mL, a neutralization IC50 [35] of 7.87 µg/mL and a neutralization IC50 [36] of 40.5 µg/mL. The neutralization IC50 [37] was 24.3 µg/mL, the neutralization IC50 [38] was 1.73 µg/mL and the neutralization IC50 [39] was 20.1 µg/mL. The neutralization IC50 [40] was 15 µg/mL, the IC50 (µg/ml), TZM-bl cell neutralization assay, pseudovirus [41] was greater than 50 µg/mL and the neutralization IC50 [42] was greater than 50 µg/mL. The neutralization IC50 [43] was greater than 50 µg/mL, the neutralization IC50 [44] was 13.9 µg/mL and the neutralization IC50 [45] was 1.38 µg/mL. The IC50 (µg/ml), TZM-bl cell neutralization assay, control pseudovirus [46] was greater than 50 µg/mL and the IC80 (µg/ml), TZM-bl pseudovirus neutralization [46] was greater than 50 µg/mL.

From patent US20240124560A1
